Source: patent US20190330367A1

Legend:
[1] = molecular target: human PSMA, full-length (endogenous on LNCaP and CW22Rv1 cells, or stably overexpressed in HEK293T/17 cells) (human) (UniProt Q04609); assay: flow cytometry (summary sentence; differs from […] in Table 2)
[2] = molecular target: Avi-PSMA, extracellular part of human PSMA comprising an N-terminal Avi-tag (human) (UniProt Q04609); assay: native ELISA, biotinylated Avi-PSMA on streptavidin plate, mAb titrated
[3] = molecular target: rhPSMA, extracellular part of human PSMA (residues 44-750) (human) (UniProt Q04609); assay: SPR (BIAcore 2000), mAb captured by anti-mouse IgG, rhPSMA as analyte, Langmuir 1:1 fit
[4] = molecular target: human PSMA, full-length (endogenous on LNCaP and CW22Rv1 cells, or stably overexpressed in HEK293T/17 cells) (human) (UniProt Q04609); assay: flow cytometry on live LNCaP cells, mAb 5 µg/mL, Alexa Fluor 647 secondary antibody; number printed beside the open (LNCaP) histogram
[5] = molecular target: Avi-PSMA, extracellular part of human PSMA comprising an N-terminal Avi-tag (human) (UniProt Q04609); assay: direct ELISA on biotinylated Avi-PSMA held on streptavidin-coated plates, HRP secondary antibody, chemiluminescence, normalised binding (%)
[6] = molecular target: human PSMA, full-length (endogenous on LNCaP and CW22Rv1 cells, or stably overexpressed in HEK293T/17 cells) (human) (UniProt Q04609); assay: flow cytometry titration on live LNCaP cells
[7] = molecular target: human PSMA, full-length (endogenous on LNCaP and CW22Rv1 cells, or stably overexpressed in HEK293T/17 cells) (human) (UniProt Q04609); assay: flow cytometry titration on live LNCaP cells, Alexa Fluor 647 secondary antibody, normalised binding (%)

| Substance | Kd [1] | Kd [2] | Kd [3] | median fluorescence (Alexa Fluor 647) [4] | EC50 (read off the curve) [5] | Kd [6] | koff [3] | kon [3] | EC50 (read off the curve) [7] |
| --- | --- | --- | --- | --- | --- | --- | --- | --- | --- |
| 5D3 mAb (antibody) | 1.2 nM | 0.14 nM | 1.08 nM | 10700 | 0.1 to 0.2 nM | – | – | – | – |
| J591 mAb (antibody) | – | 1.12 nM | 1.21 nM | 10600 | 0.9 nM | 15.2 nM | 0.000123 s⁻¹ | 102000 M⁻¹ s⁻¹ | 10 nM |
